Measured values taken from publication PMC10350030 (bioRxiv, 2023).

Columns and labels:
[1] = Fluorescence spectra of FAM-Aβ42 during incubation in PBS; format: physicochemical; settings: PBS buffer, 0 to 60 minutes, in the presence of CP
biotinylated-Aβ42 = biotinylated-Aβ42 (Homo sapiens, UniProt P05067); assay: Single-molecule TIRF imaging of Cy3-CP on immobilized biotinylated Aβ42; format: binding
Aβ42 = Aβ42 (Homo sapiens, UniProt P05067); assay: Fluorescence polarization; format: binding; settings: read-out: apparent Kd for the Aβ42/CP interaction; fluorescence polarization of FAM-Aβ42 with increasing concentrations of CP
Chain of Aβ42 (P05067 672-713, one chain of several): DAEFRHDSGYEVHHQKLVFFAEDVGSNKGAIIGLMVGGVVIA

Chain of biotinylated-Aβ42 (P05067 672-713): as the sequence (P05067 672-713, one chain of several) above

B1: ceruloplasmin (protein)
chain: KEKHYYIGIIETTWDYASDHGEKKLISVDTEHSNIYLQNGPDRIGRLYKKALYLQYTDETFRTTIEKPVWLGFLGPIIKAETGDKVYVHLKNLASRPYTFHSHGITYYKEHEGAIYPDNTTDFQRADDKVYPGEQYTYMLLATEEQSPGEGDGNCVTRIYHSHIDAPKDIASGLIGPLIICKKDSLDKEKEKHIDREFVVMFSVVDENFSWYLEDNIKTYCSEPEKVDKDNEDFQESNRMYSVNGYTFGSLPGLSMCAEDRVKWYLFGMGNEVDVHAAFFHGQALTNKNYRIDTINLFPATLFDAYMVAQNPGEWMLSCQNLNHLKAGLQAFFQVQECNKSSSKDNIRGKHVRHYYIAAEEIIWNYAPSGIDIFTKENLTAPGSDSAVFFEQGTTRIGGSYKKLVYREYTDASFTNRKERGPEEEHLGILGPVIWAEVGDTIRVTFHNKGAYPLSIEPIGVRFNKNNEGTYYSPNYNPQSRSVPPSASHVAPTETFTYEWTVPKEVGPTNADPVCLAKMYYSAVEPTKDIFTGLIGPMKICKKGSLHANGRQKDVDKEFYLFPTVFDENESLLLEDNIRMFTTAPDQVDKEDEDFQESNKMHSMNGFMYGNQPGLTMCKGDSVVWYLFSAGNEADVHGIYFSGNTYLWRGERRDTANLFPQTSLTLHMWPDTEGTFNVECLTTDHYTGGMKQKYTVNQCRRQSEDSTFYLGERTYYIAAVEVEWDYSPQREWEKELHHLQEQNVSNAFLDKGEFYIGSKYKKVVYRQYTDSTFRVPVERKAEEEHLGILGPQLHADVGDKVKIIFKNMATRPYSIHAHGVQTESSTVTPTLPGETLTYVWKIPERSGAGTEDSACIPWAYYSTVDQVKDLYSGLIGPLIVCRRPYLKVFNPRRKLEFALLFLVFDENESWYLDDNIKTYSDHPEKVNKDDEEFIESNKMHAINGRMFGNLQGLTMHVGDEVNWYLMGMGNEIDLHTVHFHGHSFQYKHRGVYSSDVFDIFPGTYQTLEMFPRTPGIWLLHCHVTDHIHAGMETTYTVLQNEDTKSG
- effect of CP on the fluorescence intensity decrease of FAM-Aβ42 [1]: considerably attenuated
- TIRF image brightness of CP/Aβ versus CP alone (biotinylated-Aβ42; Cy3-labeled CP, imaging for 10 minutes): much higher
- half-lifetime of stable binding (biotinylated-Aβ42; TIRF, 100 nM CP-Cy3, no Vc): ~62.3 s
- half-lifetime of transient binding (biotinylated-Aβ42; TIRF, 100 nM CP-Cy3, no Vc): about 14.6 s
- stable K(slow) of CP/Aβ binding (biotinylated-Aβ42; TIRF, 100 nM CP-Cy3, no Vc, unit not given): about 0.011
- half-lifetime of stable binding with Vc (biotinylated-Aβ42; TIRF, 100 nM CP-Cy3 with 250 μM Vc): 39.0 s
- Kd (Aβ42): 123 ± 6.7 nM
